Experimental data published in patent EP3988566A1.

Target: soluble polymeric amyloid beta (UniProt P05067)
Assay: ELISA, plate coated with amyloid oligomer (55 µg/ml), anti-mouse IgG-AP detection

Sequence of soluble polymeric amyloid beta (P05067 672-713): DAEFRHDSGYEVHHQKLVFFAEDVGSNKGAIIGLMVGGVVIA

- O.D. at 0.078 ug/ml antibody: 0.652 O.D.
- O.D. at 0.156 ug/ml antibody: 1.04 O.D.
- O.D. at 0.312 ug/ml antibody: 1.72 O.D.
- O.D. at 0.625 ug/ml antibody: 2.81 O.D.
B1: mouse monoclonal antibody ACI-01-Ab7C2 (antibody, mouse IgG2b, V domains shown)
VH: EVQLVESGGGLVQPGGSLKLSCAASGFTFSSYGMSWVRQTPDKRLELVASINSNGGSTYYPDSVKGRFTISRDNAKNTLYLQMSSLKSEDTAMYYCASGDYWGQGSTLTVSS
VL: DVVMTQTPLSLPVSLGDQASISCRSSQSLVYSNGDTYLHWYLQKPGQSPKLLIYKVSNRFSGVPDRFSGSGSGTDFTLKISRVEAEDLGVYFCSQSTHVPWTFGGGTKLEIK
